From PMC3765318, “An efficient protocol for the purification and labeling of entire yeast septin rods from E.coli for quantitative in vitro experimentation” (BMC Biotechnology, 2013)
One block for each binder: values may come before it.

Legend:
[1] = molecular target: T1, SNAP tagged septin rod labeled with BG-biotin (S. cerevisiae, UniProt P32458 1-415; P32468 1-407; P32457 1-520; P25342 1-322, biotin, covalently attached with BG-Biotin to the SNAP tag); experiment: SPR; same dataset as a8; sensograms fitted with a two state reaction model (to compensate for background binding of Bni5 to the antibody-coated surface); contact 120 or 180 s, dissociation 600 s; settings: both partners purified
T1 construct: Cdc11, S. cerevisiae septin; ORF amplified by PCR from genomic DNA; Cdc12, S. cerevisiae septin; Cdc3, S. cerevisiae septin; Cdc10, S. cerevisiae septin; calculated molecular weight 432.5 kDa; also called septin rods; biotinylated septin rods; source: E. coli BL21(DE3), four subunits co-expressed, purified (IMAC, Resource Q anion exchange), labeled with BG-Biotin; not shown: S tag, N-terminal, …

[2] = molecular target: T1, SNAP tagged septin rod labeled with …; experiment: SPR; Biacore X100; biotinylated SNAP tagged septin rods captured (about 100 RU) on an anti-biotin antibody coated CM5 chip; Bni5 0-1600 nM as analyte in MSP buffer (10 mM MES, 150 mM NaCl, 0.05% Tween 20, pH 7.4); KD from the analyte response plotted against concentration; settings: both partners purified
[3] = molecular target: the molecule itself; experiment: co-sedimentation + other: fluorescence microscopy; 2 uM SNAP tagged rods labeled with BG-TMR, dialyzed into low salt buffer (50 mM NaCl, 50-200 mM Tris-HCl pH 8.0), 16 h at 4 C, pelleted at 100,000 g, on poly-L-lysine slides

- Kd [1]: 253 nM
- koff [1]: 0.037 s⁻¹
- kon [1]: 51000 M⁻¹ s⁻¹
- Kd [2]: 313 nM
B1: Bni5 (natural protein, S. cerevisiae, UniProt P53890 1-448, looked up)
chain: MGLDQDKIKKRLSQIEIDINQMNQMIDENLQLVEPAEDEAVEDNVKDTGVVDAVKVAETALFSGNDGADSNPGDSAQVEEHKTAQVHIPTENEANKSTDDPSQLSVTQPFIAKEQITHTAIAIGDSYNSFVANSAGNEKAKDSCTENKEDGTVNIDQNRGEADVEIIENNDDEWEDEKSDVEEGRVDKGTEENSEIESFKSPMPQNNTLGGENKLDAELVLDKFSSANKDLDIQPQTIVVGGDNEYNHESSRLADQTPHDDNSENCPNRSGGSTPLDSQTKIFIPKKNSKEDGTNINHFNSDGDGQKKMANFETRRPTNPFRVISVSSNSNSRNGSRKSSLNKYDSPVSSPITSASELGSIAKLEKRHDYLSMKCIKLQKEIDYLNKMNAQGSLSMEDGKRLHRAVVKLQEYLDKKTKEKYEVGVLLSRHLRKQIDRGENGQFWIGTK
notes: Bni5, S. cerevisiae; BNI5 PCR amplified from genomic DNA, cloned in a pET15b derived expression plasmid; primers are in Additional file 1; also called purified Bni5 (analyte protein); 6his tagged Bni5; source: E. coli BL21(DE3), purified (IMAC, size exclusion chromatography)

B2: SNAP tagged septin rod labeled with BG-TMR (complex, S. cerevisiae)
chain 1: MSGIIDASSALRKRKHLKRGITFTVMIVGQSGSGRSTFINTLCGQQVVDTSTTILLPTDTSTEIDLQLREETVELEDDEGVKIQLNIIDTPGFGDSLDNSPSFEIISDYIRHQYDEILLEESRVRRNPRFKDGRVHCCLYLINPTGHGLKEIDVEFIRQLGSLVNIIPVISKSDSLTRDELKLNKKLIMEDIDRWNLPIYNFPFDEDEISDEDYETNMYLRTLLPFAIIGSNEVYEMGGDVGTIRGRKYPWGILDVEDSSISDFVILRNALLISHLHDLKNYTHEILYERYRTEALSGESVAAESIRPNLTKLNGSSSSSTTTRRNTNPFKQSNNINNDVLNPASDMHGQSTGENNETYMTREEQIRLEEERLKAFEERVQQELLLKRQELLQREKELREIEARLEKEAKIKQEE
chain 2: MSAATATAAPVPPPVGISNLPNQRYKIVNEEGGTFTVMLCGESGLGKTTFINTLFQTVLKRADGQQHRQEPIRKTVEIDITRALLEEKHFELRVNVIDTPGFGDNVNNNKAWQPLVDFIDDQHDSYMRQEQQPYRTKKFDLRVHAVLYFIRPTGHGLKPIDIETMKRLSTRANLIPVIAKADTLTAQELQQFKSRIRQVIEAQEIRIFTPPLDADSKEDAKSGSNPDSAAVEHARQLIEAMPFAIVGSEKKFDNGQGTQVVARKYPWGLVEIENDSHCDFRKLRALLLRTYLLDLISTTQEMHYETYRRLRLEGHENTGEGNEDFTLPAIAPARKLSHNPRYKEEENALKKYFTDQVKAEEQRFRQWEQNIVNERIRLNGDLEEIQGKVKKLEEQVKSLQVKKSHLK
chain 3: MSLKEEQVSIKQDPEQEERQHDQFNDVQIKQESQDHDGVDSQYTNGTQNDDSERFEAAESDVKVEPGLGMGITSSQSEKGQVLPDQPEIKFIRRQINGYVGFANLPKQWHRRSIKNGFSFNLLCVGPDGIGKTTLMKTLFNNDDIEANLVKDYEEELANDQEEEEGQGEGHENQSQEQRHKVKIKSYESVIEENGVKLNLNVIDTEGFGDFLNNDQKSWDPIIKEIDSRFDQYLDAENKINRHSINDKRIHACLYFIEPTGHYLKPLDLKFMQSVYEKCNLIPVIAKSDILTDEEILSFKKTIMNQLIQSNIELFKPPIYSNDDAENSHLSERLFSSLPYAVIGSNDIVENYSGNQVRGRSYPWGVIEVDNDNHSDFNLLKNLLIKQFMEELKERTSKILYENYRSSKLAKLGIKQDNSVFKEFDPISKQQEEKTLHEAKLAKLEIEMKTVFQQKVSEKEKKLQKSETELFARHKEMKEKLTKQLKALEDKKKQLELSINSASPNVNHSPVPTKKKGFLR
chain 4: MDPLSSVQPASYVGFDTITNQIEHRLLKKGFQFNIMVVGQSGLGKSTLINTLFASHLIDSATGDDISALPVTKTTEMKISTHTLVEDRVRLNINVIDTPGFGDFIDNSKAWEPIVKYIKEQHSQYLRKELTAQRERFITDTRVHAILYFLQPNGKELSRLDVEALKRLTEIANVIPVIGKSDTLTLDERTEFRELIQNEFEKYNFKIYPYDSEELTDEELELNRSVRSIIPFAVVGSENEIEINGETFRGRKTRWSAINVEDINQCDFVYLREFLIRTHLQDLIETTSYIHYEGFRARQLIALKENANSRSSAHMSSNAIQR
modifications: tetramethylrhodamine (TMR), covalently attached with BG-TMR to the SNAP tag
notes: Cdc11, S. cerevisiae septin; ORF amplified by PCR from genomic DNA; Cdc12, S. cerevisiae septin; Cdc3, S. cerevisiae septin; Cdc10, S. cerevisiae septin; also called SNAP tagged, TMR labeled septin filaments; TMR labeled septin filaments; source: E. coli BL21(DE3), four subunits co-expressed, purified (IMAC, Resource Q anion exchange), labeled with BG-TMR; copies: 2 + 2 + 2 + 2
- binding result [3]: binds
